# B1: Keratin, type I cuticular Ha8 (Homo sapiens), O76015 (parent)
# chain: MTSSYSSSSCPLGCTMAPGARNVSVSPIDIGCQPGAEANIAPMCLLANVAHANRVRVGSTPLGRPSLCLPPTCHTACPLPGTCHIPGNIGICGAYGENTLNGHEKETMQFLNDRLANYLEKVRQLEQENAELEATLLERSKCHESTVCPDYQSYFHTIEELQQKILCSKAENARLIVQIDNAKLAADDFRIKLESERSLRQLVEADKCGTQKLLDDATLAKADLEAQQESLKEEQLSLKSNHEQEVKILRSQLGEKLRIELDIEPTIDLNRVLGEMRAQYEAMLETNRQDVEQWFQAQSEGISLQDMSCSEELQCCQSEILELRCTVNALEVERQAQHTLKDCLQNSLCEAEDRFGTELAQMQSLISNVEEQLSEIRADLERQNQEYQVLLDVKTRLENEIATYRNLLESEDCKLPCNPCSTSPSCVTAPCAPRPSCGPCTTCGPTCGASTTGSRF
# B2: Palmitoyltransferase ZDHHC22 (Homo sapiens), Q8N966 (parent)
# chain: MLALRLLNVVAPAYFLCISLVTFVLQLFLFLPSMREDPAAARLFSPALLHGALFLFLSANALGNYVLVIQNSPDDLGACQGASARKTPCPSPSTHFCRVCARVTLRHDHHCFFTGNCIGSRNMRNFVLFCLYTSLACLYSMVAGVAYISAVLSISFAHPLAFLTLLPTSISQFFSGAVLGSEMFVILMLYLWFAIGLACAGFCCHQLLLILRGQTRHQVRKGVAVRARPWRKNLQEVFGKRWLLGLLVPMFNVGSESSKQQDK
# partner: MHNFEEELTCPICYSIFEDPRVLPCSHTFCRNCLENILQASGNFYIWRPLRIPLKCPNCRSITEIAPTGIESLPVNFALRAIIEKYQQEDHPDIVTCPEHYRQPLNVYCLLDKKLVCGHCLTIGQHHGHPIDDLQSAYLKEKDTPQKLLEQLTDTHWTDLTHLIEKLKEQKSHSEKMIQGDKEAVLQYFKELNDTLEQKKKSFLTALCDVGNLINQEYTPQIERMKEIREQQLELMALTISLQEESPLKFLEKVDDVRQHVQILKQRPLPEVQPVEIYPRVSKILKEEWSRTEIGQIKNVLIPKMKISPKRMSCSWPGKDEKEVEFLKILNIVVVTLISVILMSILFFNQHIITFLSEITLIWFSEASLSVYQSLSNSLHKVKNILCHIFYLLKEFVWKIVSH
# B3: Vesicle transport protein USE1 (Homo sapiens), Q9NZ43 (parent)
# chain: MAASRLELNLVRLLSRCEAMAAEKRDPDEWRLEKYVGALEDMLQALKVHASKPASEVINEYSWKVDFLKGMLQAEKLTSSSEKALANQFLAPGRVPTTARERVPATKTVHLQSRARYTSEMRSELLGTDSAEPEMDVRKRTGVAGSQPVSEKQLAAELDLVLQRHQNLQEKLAEEMLGLARSLKTNTLAAQSVIKKDNQTLSHSLKMADQNLEKLKTESERLEQHTQKSVNWLLWAMLIIVCFIFISMILFIRIMPKLK
# B4: Ribosome assembly protein METTL17, mitochondrial (Homo sapiens), Q9H7H0 (parent)
# chain: MAAALKCLLTLGRWCPGLGVAPQARALAALVPGVTQVDNKSGFLQKRPHRQHPGILKLPHVRLPQALANGAQLLLLGSAGPTMENQVQTLTSYLWSRHLPVEPEELQRRARHLEKKFLENPDLSQTEEKLRGAVLHALRKTTYHWQELSYTEGLSLVYMAARLDGGFAAVSRAFHEIRARNPAFQPQTLMDFGSGTGSVTWAAHSIWGQSLREYMCVDRSAAMLVLAEKLLKGGSESGEPYIPGVFFRQFLPVSPKVQFDVVVSAFSLSELPSKADRTEVVQTLWRKTGHFLVLVENGTKAGHSLLMDARDLVLKGKEKSPLDPRPGFVFAPCPHELPCPQLTNLACSFSQAYHPIPFSWNKKPKEEKFSMVILARGSPEEAHRWPRITQPVLKRPRHVHCHLCCPDGHMQHAVLTARRHGRDLYRCARVSSWGDLLPVLTPSAFPPSTAQDPSES
# Variants of: B1
# Conditions: with k22e_human KRT2, P35908
# Sequence of k22e_human KRT2, P35908 (P35908 whole entry): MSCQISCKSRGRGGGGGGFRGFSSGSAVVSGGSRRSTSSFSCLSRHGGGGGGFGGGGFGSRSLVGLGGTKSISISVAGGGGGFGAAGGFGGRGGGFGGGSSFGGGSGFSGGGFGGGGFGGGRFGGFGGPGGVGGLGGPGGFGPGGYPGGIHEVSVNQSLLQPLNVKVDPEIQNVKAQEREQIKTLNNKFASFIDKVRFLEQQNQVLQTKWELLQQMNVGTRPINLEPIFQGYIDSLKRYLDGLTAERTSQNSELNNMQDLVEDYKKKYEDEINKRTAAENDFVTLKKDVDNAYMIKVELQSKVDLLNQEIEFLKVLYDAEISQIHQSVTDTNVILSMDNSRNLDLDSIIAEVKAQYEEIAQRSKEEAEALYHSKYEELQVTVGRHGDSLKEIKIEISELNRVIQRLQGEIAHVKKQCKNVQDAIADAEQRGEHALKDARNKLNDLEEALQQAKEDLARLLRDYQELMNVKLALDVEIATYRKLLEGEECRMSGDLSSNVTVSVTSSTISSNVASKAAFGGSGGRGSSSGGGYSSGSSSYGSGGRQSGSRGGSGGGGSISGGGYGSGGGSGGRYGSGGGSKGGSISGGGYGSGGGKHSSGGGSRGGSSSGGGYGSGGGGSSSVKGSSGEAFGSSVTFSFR
row,effect of a mutation on the interaction,Variant
1,with no effect,N270K

# Variants of: B1
# Conditions: with txnd5_human TXNDC5, Q8NBS9
# Sequence of txnd5_human TXNDC5, Q8NBS9 (Q8NBS9 whole entry): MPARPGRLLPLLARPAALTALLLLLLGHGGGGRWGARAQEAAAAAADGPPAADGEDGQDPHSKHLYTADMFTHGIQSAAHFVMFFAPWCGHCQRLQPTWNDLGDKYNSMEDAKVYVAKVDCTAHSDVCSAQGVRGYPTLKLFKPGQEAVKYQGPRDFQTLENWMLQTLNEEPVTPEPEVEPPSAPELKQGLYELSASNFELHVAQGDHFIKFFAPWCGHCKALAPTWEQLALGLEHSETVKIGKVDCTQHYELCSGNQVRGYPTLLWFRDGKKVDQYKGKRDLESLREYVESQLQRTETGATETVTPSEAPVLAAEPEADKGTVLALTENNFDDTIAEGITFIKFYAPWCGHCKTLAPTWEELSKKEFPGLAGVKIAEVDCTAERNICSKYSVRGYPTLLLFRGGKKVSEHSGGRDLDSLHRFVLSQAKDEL
row,effect of a mutation on the interaction,Variant
1,with no effect,N270K

# Variants of: B1
# Conditions: with prs8_human PSMC5, P62195
# Sequence of prs8_human PSMC5, P62195 (P62195 whole entry): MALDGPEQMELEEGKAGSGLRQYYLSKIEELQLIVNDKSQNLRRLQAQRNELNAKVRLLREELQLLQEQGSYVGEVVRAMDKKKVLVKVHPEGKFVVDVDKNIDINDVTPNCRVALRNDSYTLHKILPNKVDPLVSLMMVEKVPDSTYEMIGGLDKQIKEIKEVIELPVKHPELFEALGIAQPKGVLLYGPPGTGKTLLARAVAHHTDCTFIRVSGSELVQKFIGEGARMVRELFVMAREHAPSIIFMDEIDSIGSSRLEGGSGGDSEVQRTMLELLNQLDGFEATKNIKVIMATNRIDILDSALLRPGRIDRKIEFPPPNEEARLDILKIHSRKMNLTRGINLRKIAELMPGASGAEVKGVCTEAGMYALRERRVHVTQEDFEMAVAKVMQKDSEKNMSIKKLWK
row,effect of a mutation on the interaction,Variant
1,with no effect,N270K

# Variants of: B1
# Conditions: with p85b_human PIK3R2, O00459
# Sequence of p85b_human PIK3R2, O00459 (O00459 whole entry): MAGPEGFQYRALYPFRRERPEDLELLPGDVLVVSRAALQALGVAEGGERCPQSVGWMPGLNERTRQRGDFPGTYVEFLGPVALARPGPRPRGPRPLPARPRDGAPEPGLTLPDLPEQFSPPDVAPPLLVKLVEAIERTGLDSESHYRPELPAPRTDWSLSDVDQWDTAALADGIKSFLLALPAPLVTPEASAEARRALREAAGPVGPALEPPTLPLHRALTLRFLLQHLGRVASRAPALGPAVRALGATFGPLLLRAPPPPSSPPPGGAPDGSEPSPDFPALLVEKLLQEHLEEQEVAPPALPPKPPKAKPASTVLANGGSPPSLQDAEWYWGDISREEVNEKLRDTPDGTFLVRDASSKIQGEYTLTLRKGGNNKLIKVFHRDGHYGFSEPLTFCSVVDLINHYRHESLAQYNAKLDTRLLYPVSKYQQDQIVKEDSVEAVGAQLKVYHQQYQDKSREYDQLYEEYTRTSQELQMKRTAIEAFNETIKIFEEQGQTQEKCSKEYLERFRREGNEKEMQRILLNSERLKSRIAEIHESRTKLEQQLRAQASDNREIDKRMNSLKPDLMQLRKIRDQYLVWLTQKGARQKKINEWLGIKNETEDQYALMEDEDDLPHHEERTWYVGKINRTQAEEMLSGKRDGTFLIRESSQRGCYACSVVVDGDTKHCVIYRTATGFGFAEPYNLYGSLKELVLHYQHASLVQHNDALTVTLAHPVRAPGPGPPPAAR
row,effect of a mutation on the interaction,Variant
1,with no effect,N270K

# Variants of: B1
# Conditions: with KRT6A
row,effect of a mutation on the interaction,Variant
1,with no effect,N270K

# Variants of: B1
# Conditions: with k2c4_human KRT4, P19013
# Sequence of k2c4_human KRT4, P19013 (P19013 whole entry): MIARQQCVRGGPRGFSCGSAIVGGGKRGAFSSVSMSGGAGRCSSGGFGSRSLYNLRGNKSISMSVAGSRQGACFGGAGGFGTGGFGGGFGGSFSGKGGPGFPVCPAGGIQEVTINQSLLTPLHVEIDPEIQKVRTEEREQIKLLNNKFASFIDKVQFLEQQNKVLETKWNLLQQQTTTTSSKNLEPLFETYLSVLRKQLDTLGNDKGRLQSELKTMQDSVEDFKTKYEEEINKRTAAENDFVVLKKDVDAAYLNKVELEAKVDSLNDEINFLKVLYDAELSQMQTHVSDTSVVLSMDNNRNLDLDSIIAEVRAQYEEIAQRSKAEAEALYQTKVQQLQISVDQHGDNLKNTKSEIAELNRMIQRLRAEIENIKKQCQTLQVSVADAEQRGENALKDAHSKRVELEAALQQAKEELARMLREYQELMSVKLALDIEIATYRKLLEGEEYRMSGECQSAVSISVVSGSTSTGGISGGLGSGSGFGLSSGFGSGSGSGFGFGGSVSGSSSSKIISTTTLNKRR
row,effect of a mutation on the interaction,Variant
1,with no effect,N270K

# Variants of: B1
# Conditions: with txlnb_human TXLNB
row,effect of a mutation on the interaction,Variant
1,with no effect,N270K

# Variants of: B1
# Conditions: with KRT79, Q5XKE5
# Sequence of KRT79, Q5XKE5 (Q5XKE5 whole entry): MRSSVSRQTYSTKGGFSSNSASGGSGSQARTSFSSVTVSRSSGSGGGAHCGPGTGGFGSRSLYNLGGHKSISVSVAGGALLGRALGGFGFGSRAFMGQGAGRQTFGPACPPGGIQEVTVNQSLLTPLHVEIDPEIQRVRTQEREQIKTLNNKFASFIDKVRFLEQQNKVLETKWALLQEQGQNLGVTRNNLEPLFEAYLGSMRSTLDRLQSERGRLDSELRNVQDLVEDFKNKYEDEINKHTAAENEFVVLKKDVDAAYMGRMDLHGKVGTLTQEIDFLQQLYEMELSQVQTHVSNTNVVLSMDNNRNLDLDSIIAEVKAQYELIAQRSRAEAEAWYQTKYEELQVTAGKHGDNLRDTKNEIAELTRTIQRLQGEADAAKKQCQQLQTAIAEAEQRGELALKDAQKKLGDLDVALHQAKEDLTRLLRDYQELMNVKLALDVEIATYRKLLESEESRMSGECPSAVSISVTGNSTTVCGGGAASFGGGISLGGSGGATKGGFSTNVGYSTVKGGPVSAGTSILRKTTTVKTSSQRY
row,effect of a mutation on the interaction,Variant
1,with no effect,N270K

# Variants of: B1
# Conditions: with txlna_human TXLNA
row,effect of a mutation on the interaction,Variant
1,with no effect,N270K

# Variants of: B1
# Conditions: with k22e_human KRT2, P35908
# Remark: another data set of the same source
row,effect of a mutation on the interaction,Variant
1,with no effect,D306A

# Variants of: B1
# Conditions: with txnd5_human TXNDC5, Q8NBS9
# Remark: another data set of the same source
row,effect of a mutation on the interaction,Variant
1,with no effect,D306A

# Variants of: B1
# Conditions: with prs8_human PSMC5, P62195
# Remark: another data set of the same source
row,effect of a mutation on the interaction,Variant
1,with no effect,D306A

# Variants of: B1
# Conditions: with p85b_human PIK3R2, O00459
# Remark: another data set of the same source
row,effect of a mutation on the interaction,Variant
1,with no effect,D306A

# Variants of: B1
# Conditions: with KRT6A
# Remark: another data set of the same source
row,effect of a mutation on the interaction,Variant
1,with no effect,D306A

# Variants of: B1
# Conditions: with k2c4_human KRT4, P19013
# Remark: another data set of the same source
row,effect of a mutation on the interaction,Variant
1,with no effect,D306A

# Variants of: B1
# Conditions: with txlnb_human TXLNB
# Remark: another data set of the same source
row,effect of a mutation on the interaction,Variant
1,with no effect,D306A

# Variants of: B1
# Conditions: with KRT79, Q5XKE5
# Remark: another data set of the same source
row,effect of a mutation on the interaction,Variant
1,with no effect,D306A

# Variants of: B1
# Conditions: with txlna_human TXLNA
# Remark: another data set of the same source
row,effect of a mutation on the interaction,Variant
1,with no effect,D306A

# Variants of: B2
# Conditions: with tri59_human TRIM59, Q8IWR1
row,effect of a mutation on the interaction,Variant
1,with no effect,L209F

# Variants of: B3
# Conditions: with bscl2_human BSCL2, Q96G97
# Sequence of bscl2_human BSCL2, Q96G97 (Q96G97 whole entry): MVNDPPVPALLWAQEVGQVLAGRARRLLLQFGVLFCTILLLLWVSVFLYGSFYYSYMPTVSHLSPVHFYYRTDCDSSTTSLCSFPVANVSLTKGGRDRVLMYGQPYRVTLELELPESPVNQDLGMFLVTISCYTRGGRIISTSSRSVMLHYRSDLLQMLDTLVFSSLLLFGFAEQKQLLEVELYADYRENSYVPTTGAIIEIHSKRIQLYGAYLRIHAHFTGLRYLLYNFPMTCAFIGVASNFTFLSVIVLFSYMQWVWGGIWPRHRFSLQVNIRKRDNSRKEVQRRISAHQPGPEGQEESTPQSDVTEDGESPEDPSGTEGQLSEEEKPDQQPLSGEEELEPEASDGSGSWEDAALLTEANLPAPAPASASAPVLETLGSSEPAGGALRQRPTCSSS
row,effect of a mutation on the interaction,Variant
1,with no effect,T217M

# Variants of: B3
# Conditions: with creb3_human CREB3, O43889
# Sequence of creb3_human CREB3, O43889 (O43889 whole entry): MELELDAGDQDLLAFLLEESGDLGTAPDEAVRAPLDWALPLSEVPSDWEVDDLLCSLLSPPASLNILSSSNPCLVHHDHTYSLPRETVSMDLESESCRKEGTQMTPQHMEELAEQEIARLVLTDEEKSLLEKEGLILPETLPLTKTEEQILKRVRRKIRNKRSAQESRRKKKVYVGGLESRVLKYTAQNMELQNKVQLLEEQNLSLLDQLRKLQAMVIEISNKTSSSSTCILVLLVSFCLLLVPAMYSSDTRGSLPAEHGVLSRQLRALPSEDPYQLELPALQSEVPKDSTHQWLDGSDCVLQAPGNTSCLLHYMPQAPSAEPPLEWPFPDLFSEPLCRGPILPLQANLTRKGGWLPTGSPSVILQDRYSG
row,effect of a mutation on the interaction,Variant
1,with no effect,T217M

# Variants of: B4
# Conditions: with sf3b4_human SF3B4, Q15427
# Sequence of sf3b4_human SF3B4, Q15427 (Q15427 whole entry): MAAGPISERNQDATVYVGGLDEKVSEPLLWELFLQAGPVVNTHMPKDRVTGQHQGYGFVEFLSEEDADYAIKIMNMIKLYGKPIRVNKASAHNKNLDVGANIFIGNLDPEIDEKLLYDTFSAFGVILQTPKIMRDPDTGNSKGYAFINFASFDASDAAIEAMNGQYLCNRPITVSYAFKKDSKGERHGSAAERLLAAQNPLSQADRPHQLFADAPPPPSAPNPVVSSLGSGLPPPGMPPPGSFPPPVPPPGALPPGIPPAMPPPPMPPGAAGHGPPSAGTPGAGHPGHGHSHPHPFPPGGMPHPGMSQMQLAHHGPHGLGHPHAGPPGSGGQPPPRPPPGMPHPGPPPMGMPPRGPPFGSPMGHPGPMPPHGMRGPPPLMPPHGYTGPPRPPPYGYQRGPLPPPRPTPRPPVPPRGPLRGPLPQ
row,effect of a mutation on the interaction,Variant
1,with no effect,R212H

# Variants of: B4
# Conditions: with mdfi_human MDFI
row,effect of a mutation on the interaction,Variant
1,with no effect,R212H

# — IntAct's records for PubMed 29892012
